Molecular target: Drosophila melanogaster insulin receptor ectodomain (dmIR-ECD) (Drosophila melanogaster) (UniProt P09208)
Experiment: cryo-EM structure

Sequence of Drosophila melanogaster insulin receptor ectodomain (dmIR-ECD) (Drosophila melanogaster) (P09208 291-1309): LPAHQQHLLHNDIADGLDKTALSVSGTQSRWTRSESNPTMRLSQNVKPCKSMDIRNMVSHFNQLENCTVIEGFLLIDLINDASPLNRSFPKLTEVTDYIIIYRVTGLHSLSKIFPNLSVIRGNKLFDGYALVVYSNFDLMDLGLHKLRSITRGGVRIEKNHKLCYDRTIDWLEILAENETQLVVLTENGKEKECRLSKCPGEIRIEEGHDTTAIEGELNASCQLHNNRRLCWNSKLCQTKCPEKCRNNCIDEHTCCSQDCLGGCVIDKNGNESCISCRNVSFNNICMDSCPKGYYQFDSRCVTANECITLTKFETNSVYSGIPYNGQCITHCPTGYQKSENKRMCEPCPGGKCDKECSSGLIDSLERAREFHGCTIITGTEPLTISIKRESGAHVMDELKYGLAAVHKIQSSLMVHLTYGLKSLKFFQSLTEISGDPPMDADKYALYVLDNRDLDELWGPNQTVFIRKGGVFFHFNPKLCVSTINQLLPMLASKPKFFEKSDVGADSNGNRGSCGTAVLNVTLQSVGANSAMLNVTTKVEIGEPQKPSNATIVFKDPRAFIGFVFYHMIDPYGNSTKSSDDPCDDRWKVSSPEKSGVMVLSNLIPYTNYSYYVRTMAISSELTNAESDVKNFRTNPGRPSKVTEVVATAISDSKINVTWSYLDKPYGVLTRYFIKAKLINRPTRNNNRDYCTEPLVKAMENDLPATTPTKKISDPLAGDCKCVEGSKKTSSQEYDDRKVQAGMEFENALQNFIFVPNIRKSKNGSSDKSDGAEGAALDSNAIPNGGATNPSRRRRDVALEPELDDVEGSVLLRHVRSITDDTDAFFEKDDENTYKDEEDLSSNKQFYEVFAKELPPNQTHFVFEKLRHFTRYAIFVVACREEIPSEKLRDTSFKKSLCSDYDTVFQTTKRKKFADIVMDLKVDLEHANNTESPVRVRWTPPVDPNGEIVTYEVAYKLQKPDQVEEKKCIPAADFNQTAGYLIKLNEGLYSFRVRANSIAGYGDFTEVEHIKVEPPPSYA
Sequence of Drosophila insulin-like peptide 2 (DILP2), synthetic two-chain hormone with the A-chain starting at GlnA5 (ligand) (Q9VT51 27-137): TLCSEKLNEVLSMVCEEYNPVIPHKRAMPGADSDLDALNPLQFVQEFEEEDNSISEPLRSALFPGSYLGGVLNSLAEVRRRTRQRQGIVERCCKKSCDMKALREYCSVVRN

stoichiometry N (DILP2 per dmIR-ECD (conformer 1)): 1
stoichiometry N (DILP2 per dmIR-ECD (conformer 2)): 2
Substance: Drosophila insulin-like peptide 2 (DILP2), synthetic two-chain hormone with the A-chain starting at GlnA5 (ligand)

— doi:10.1101/2025.08.22.671756
